Test results from paper PMC12565409, “Computational–Experimental Identification of Palindromic Motifs Bound by Bacterial XRE Family Transcriptional Regulators”.

Target: Motif_38 protein HW450_07255 (UniProt A0A7G5FC37 1-70)
Test: EMSA; EMSA: 20 mM Tris-HCl pH 7.5, 250 mM NaCl, 5% glycerol; 2 uL of 1 uM FAM-DNA (labeled:unlabeled strand 1:4) + 2 uL of ~10 uM protein in 20 uL; 37 C, 30 min
Conditions: protein: recombinant; tags: His (pET-28a, Ni column); label: 5'FAM on strand 1; blunt

B1: Mot38-WT (dsDNA)
DNA 1: AATAAATCGGCACAATCGTGCCGATTTTGG
DNA 2: CCAAAATCGGCACGATTGTGCCGATTTATT
- binding result: binds
